Measurements as given in IntAct's records for PubMed 11777938.

B1: Anaphase-promoting complex subunit 8 (Schizosaccharomyces pombe (strain ATCC 38366 / 972)), O94556 (parent)
chain: MTVSLNTMMGVDGLEDQEQLREIRNCLLKCISECSERGLVYAVRWAAEMLNGMNPIEMEHIPFSSTPTGEFDLDPDMANEKLLEVEEKNIYLLAKSYFDCKEFERAAYTLQNCKSSKSIFLRLYSKYLAGEKKSEEENETLLNTNLTLSSTNREFYYISEVLESLHYQGNKDPYLLYLSGVVYRKRKQDSKAIDFLKSCVLKAPFFWSAWLELSLSIDSLETLTTVVSQLPSTHIMTKIFYVYASHELHQVNSSAYEKLAEAEIIFPNSRYLKTQRALLTYDSRDFDEAESLFENILTNDPYRLDDMDTYSNVLFVLENKSKLGFLAQVASSIDKFRPETCSIIGNYYSLLSEHEKAVTYFKRALQLNRNYLSAWTLMGHEYVELKNTHAAIESYRLAVDVNRKDYRAWYGLGQTYEVLDMHFYALYYFQRATALRPYDQRMWQALGNCYEKIDRPQEAIKSYKRALLGSQTNSSILVRLGNLYEELQDLNSAASMYKQCIKTEETEISPETIKARIWLARWELGKKNYREAELYLSEVLNGDLELEEAKALLRELRSRMEHSYD
partner: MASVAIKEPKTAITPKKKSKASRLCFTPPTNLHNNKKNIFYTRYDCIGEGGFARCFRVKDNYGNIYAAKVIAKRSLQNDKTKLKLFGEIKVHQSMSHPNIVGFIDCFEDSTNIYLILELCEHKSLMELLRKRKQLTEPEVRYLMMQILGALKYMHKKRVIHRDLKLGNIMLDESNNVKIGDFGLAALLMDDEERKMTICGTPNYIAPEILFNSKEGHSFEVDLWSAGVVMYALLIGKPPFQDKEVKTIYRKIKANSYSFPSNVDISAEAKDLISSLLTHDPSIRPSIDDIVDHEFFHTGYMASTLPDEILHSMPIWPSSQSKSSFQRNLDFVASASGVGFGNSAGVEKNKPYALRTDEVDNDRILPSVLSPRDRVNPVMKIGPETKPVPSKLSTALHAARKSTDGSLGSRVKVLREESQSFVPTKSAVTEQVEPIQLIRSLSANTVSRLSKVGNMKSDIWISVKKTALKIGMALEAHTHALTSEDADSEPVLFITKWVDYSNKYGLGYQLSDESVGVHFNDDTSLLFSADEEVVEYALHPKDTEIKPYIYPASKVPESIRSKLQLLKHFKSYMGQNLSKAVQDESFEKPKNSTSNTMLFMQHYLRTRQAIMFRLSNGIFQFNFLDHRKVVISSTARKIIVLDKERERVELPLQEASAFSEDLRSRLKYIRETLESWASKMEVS

Variants of: B1
Conditions: with plo1_schpo plo1, P50528

Variant	effect of a mutation on the interaction
MTVSLNTMMGVDGLEDQEQLREIRNCLLKCISECSERGLVYAVRWAAEMLNGMNPIEMEHIPFSSTPTGEFDLDPDMANEKLLEVEEKNIYLLAKSYFDCKEFERAAYTLQNCKSSKSIFLRLYSKYLAGEKKSEEENETLLNTNLTLSSTNREFYYISEVLESLHYQGNKDPYLLYLSGVVYRKRKQDSKAIDFLKSCVLKAPFFWSAWLELSLSIDSLETLTTVVSQLPSTHIMTKIFYVYASHELHQVNSSAYEKLAEAEIIFPNSRYLKTQRALLTYDSRDFDEAESLFENILTNDPYRLDDMDTYSNVLFVLENKSKLGFLAQVASSIDKFRPETCSIIGNYYNLLSEHEKAVTYFKRALQLNRNYLSAWTLMGHEYVELKNTHAAIESYRLAVDVNRKDYRAWYGLGQTYEVLDMHFYALYYFQRATALRPYDQRMWQALGNCYEKIDRPQEAIKSYKRALLGSQTNSSILVRLGNLYEELQDLNSAASMYKQCIKTEETEISPETIKARIWLARWELGKKNYREAELYLSEVLNGDLELEEAKALLRELRSRMEHSYD [S349N]	decreasing interaction
